# According to the RNAGym collection of RNA variant scans (doi:10.1093/molbev/msab373):
# B1: Azoarcus group I ribozyme (parent)
# chain: GUGCCUUGCGCCGGGAAACCACGCAAGGGAUGGUGUCAAAUUCGGCGAAACCUAAGCGCCCGCCCGGGCGUAUGGCAACGCCGAGCCAAGCUUCGGCGCCUGCGCCGAUGAAGGUGUAGAGACUAGACGGCACCCACCUAAGGCAAACGCUAUGGUGAAGGCAUAGUCCAGGGAGUGGCGAAAGUCACACAAACCGG
# Variants of: B1
# Assay: reverse-splicing fitness (ratio to wild type); higher = more active; in vitro selection; Mg2+ level not given
# In short: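 An in vitro group I ribozyme library with randomized positions was T7-transcribed and gel-purified. In triplicate, 10 pmol RNA in EPPS pH 7.5 was reacted with 50 pmoles of a 30-nt RNA substrate for 1 h at 37 °C across several added MgCl2 levels (1–48 mM), then stopped with EDTA. Products were reverse transcribed from a substrate-complementary primer, PCR-amplified and sequenced (HiSeq 4000). Fitness is a variant's read proportion after selection over that before, normalised to wild type.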
row,Variant,reverse-splicing fitness
1,C82G A111C A120G A145U C150G C169U,0.0085
2,C82G A111C A120G A145U C150G C169A,0.00965
3,C82G A111C A120G A145U C169A,0.00975
4,C82G A111C A120G A145U C169U,0.0104
5,C82G A111C A120G A145U C169G,0.0132
6,C82G A111C A120G A145U C150U C169G U176C,0.0134
7,C82G A111C A120G A145U C150U C169G U176G,0.00519
8,C82G A111C A120G A145U C150U C169G U176A,0.0127
9,C82G A111C A120U A145C C150A C169G U176A,0.00319
10,C82G A111C A120U A145C C150A C169G U176C,0.00286
11,C82G A111C A120U A145C C150A C169G U176G,0.00223
12,C82G A111C A120G U176C,0.0226
13,C82G A111C A120G U176G,0.00753
14,C82G A111C A120G U176A,0.0162
15,C82G A111C A120G A145G C150A C169G U176A,0.0158
16,C82G A111C A120G A145G C150A C169G U176G,0.0058
17,C82G A111C A120G A145G C150A C169G U176C,0.0267
18,C82G A111C A120G A145U C150G C169A U176A,0.00957
19,C82G A111C A120G A145U C150G C169A U176C,0.0101
20,C82G A111C A120G A145U C150G C169A U176G,0.00496
21,C82G A111C A120U A145G,0.0506

row,Variant,reverse-splicing fitness
1,C82G A111C A120U A145C,0.0432
2,C82G A111C A120G C150A C169G U176C,0.025
3,C82G A111C A120G C150A C169G U176A,0.0195
4,C82G A111C A120G C150A C169G U176G,0.00569
5,C82G A111C A120U A145C C150G C169A U176C,0.00252
6,C82G A111C A120U A145C C150G C169A U176G,0.00274
7,C82G A111C A120U A145C C150G C169A U176A,0.00295
8,C82G A111C A120G C169A U176C,0.0206
9,C82G A111C A120G C169A U176A,0.016
10,C82G A111C A120G C169A U176G,0.00442
11,C82G A111C A120U A145C C150G C169U U176A,0.00358
12,C82G A111C A120U A145C C150G C169U U176G,0.00222
13,C82G A111C A120U A145C C150G C169U U176C,0.00324
14,C82G A111C A120G A145G C169U,0.0104
15,C82G A111C A120G A145G C169G,0.0143
16,C82G A111C A120G A145G C169A,0.0114
17,C82G A111C A120G A145C C150U C169U U176C,0.0119
18,C82G A111C A120G A145C C150U C169U U176G,0.0048
19,C82G A111C A120G A145C C150U C169U U176A,0.0147
20,C82G A111C A120U A145C C150A U176A,0.00374
21,C82G A111C A120U A145C C150A U176G,0.00247

row,Variant,reverse-splicing fitness
1,C82G A111C A120U A145C C150A U176C,0.00361
2,C82G A111C A120G A145U C169A U176A,0.0115
3,C82G A111C A120G A145U C169A U176C,0.00997
4,C82G A111C A120G A145U C169A U176G,0.00439
5,C82G A111C A120G A145G C150A U176G,0.007
6,C82G A111C A120G A145G C150A U176C,0.0185
7,C82G A111C A120G A145G C150A U176A,0.00974
8,C82G A111C A120G C169A,0.0107
9,C82G A111C A120G C169G,0.0132
10,C82G A111C A120G C169U,0.00963
11,C82G A111C A120U A145C C150G U176A,0.00364
12,C82G A111C A120U A145C C150G U176C,0.00457
13,C82G A111C A120U A145C C150G U176G,0.00221
14,C82G A111C A120U A145G C150U C169U U176A,0.00549
15,C82G A111C A120U A145C C150A C169U U176C,0.00331
16,C82G A111C A120U A145C C150A C169U U176A,0.00291
17,C82G A111C A120U A145C C150A C169U U176G,0.00237
18,C82G A111C A120U A145C C150U C169G U176A,0.00257
19,C82G A111C A120U A145C C150U C169G U176G,0.00262
20,C82G A111C A120U A145C C150U C169G U176C,0.00305
21,C82G A111C A120G A145C C150G U176G,0.00269

row,Variant,reverse-splicing fitness
1,C82G A111C A120G A145C C150G U176C,0.0129
2,C82G A111C A120G A145C C150G U176A,0.00787
3,C82G A111C A120G A145G C150U C169G U176G,0.00501
4,C82G A111C A120G A145G C150U C169G U176C,0.0175
5,C82G A111C A120G A145G C150U C169G U176A,0.0133
6,C82G A111C A120G C150U C169G U176C,0.0187
7,C82G A111C A120G C150U C169G U176A,0.0141
8,C82G A111C A120G C150U C169G U176G,0.00537
9,C82G A111C A120U A145G C150G,0.0111
10,C82G A111C A120U A145G C150A,0.0106
11,C82G A111C A120U A145G C150U,0.0408
12,C82G A111C A120G A145G C169A U176C,0.0271
13,C82G A111C A120G A145G C169A U176G,0.00447
14,C82G A111C A120G A145G C169A U176A,0.0209
15,C82G A111C A120U A145C C150U,0.0115
16,C82G A111C A120U A145C C150A,0.00458
17,C82G A111C A120U A145C C150G,0.008
18,C82G A111C A120G C150U,0.0121
19,C82G A111C A120G C150A,0.0103
20,C82G A111C A120G C150G,0.00691
21,C82G A111C A120G A145G C150A C169U U176G,0.00638
